# From patent US20140087995A1 (published 2014)
# Numbered stars: 1 amine (or outer) side, 2 acyl side, 3 side chain; on linkers, the order of the positions; unused ones are H or OH. Bridge positions count the residues as written; N and C are the ends. Side chains are listed from the residue outwards. Ends that are not written are not given here. * marks the point of attachment. C20 diacid = O=C(O)CCCCCCCCCCCCCCCCCCC(=O)*; γGlu = O=C(O)[C@H](CCC(=O)[*:2])N[*:1]; AEEA = NCCOCCOCC(=O)O
# T1: human amylin receptor (amylin 3(a) receptor: human calcitonin receptor with RAMP-3) (human, UniProt P30988 25-474; O60896 24-148)
# T1 construct: whole, on cells; also called hAmylin-R; hAmylinR
# T1 sequence (looked up) 1: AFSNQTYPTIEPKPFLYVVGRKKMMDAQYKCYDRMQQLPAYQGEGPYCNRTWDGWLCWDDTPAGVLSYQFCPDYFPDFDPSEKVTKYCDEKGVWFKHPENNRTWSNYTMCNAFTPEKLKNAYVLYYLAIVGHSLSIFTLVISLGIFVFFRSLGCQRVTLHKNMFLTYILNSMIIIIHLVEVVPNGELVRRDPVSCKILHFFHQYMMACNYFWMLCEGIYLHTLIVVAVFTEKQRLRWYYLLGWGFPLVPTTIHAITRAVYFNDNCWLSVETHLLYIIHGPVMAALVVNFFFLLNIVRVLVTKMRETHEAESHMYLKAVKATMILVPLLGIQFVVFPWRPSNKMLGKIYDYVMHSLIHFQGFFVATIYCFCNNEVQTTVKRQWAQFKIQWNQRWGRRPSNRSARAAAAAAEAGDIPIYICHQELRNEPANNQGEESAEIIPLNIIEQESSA
# T1 sequence (looked up) 2: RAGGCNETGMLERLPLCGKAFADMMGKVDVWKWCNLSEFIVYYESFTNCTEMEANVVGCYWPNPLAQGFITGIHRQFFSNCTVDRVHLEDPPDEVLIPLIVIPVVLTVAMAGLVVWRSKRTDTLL
# B1: N^ε1-[2-[2-[2-(19-carboxynonadecanoylamino)ethoxy]ethoxy]acetyl]-[Arg17,Pro21,Pro27]-h-amylin (peptide)
# peptide: K([AEEA-C20 diacid])CNTATCATQRLANFLRHSSPNFGAIPSSTNVGSNTY-NH2
# modifications: disulfide 2-7; N-terminus assumed
# SMILES: CC[C@H](C)[C@H](NC(=O)[C@H](C)NC(=O)CNC(=O)[C@H](Cc1ccccc1)NC(=O)[C@H](CC(N)=O)NC(=O)[C@@H]1CCCN1C(=O)[C@H](CO)NC(=O)[C@H](CO)NC(=O)[C@H](Cc1c[nH]cn1)NC(=O)[C@H](CCCNC(=N)N)NC(=O)[C@H](CC(C)C)NC(=O)[C@H](Cc1ccccc1)NC(=O)[C@H](CC(N)=O)NC(=O)[C@H](C)NC(=O)[C@H](CC(C)C)NC(=O)[C@H](CCCNC(=N)N)NC(=O)[C@H](CCC(N)=O)NC(=O)[C@@H](NC(=O)[C@H](C)NC(=O)[C@@H]1CSSC[C@H](NC(=O)[C@@H](N)CCCCNC(=O)COCCOCCNC(=O)CCCCCCCCCCCCCCCCCCC(=O)O)C(=O)N[C@@H](CC(N)=O)C(=O)N[C@@H]([C@@H](C)O)C(=O)N[C@@H](C)C(=O)N[C@@H]([C@@H](C)O)C(=O)N1)[C@@H](C)O)C(=O)N1CCC[C@H]1C(=O)N[C@@H](CO)C(=O)N[C@@H](CO)C(=O)N[C@H](C(=O)N[C@@H](CC(N)=O)C(=O)N[C@H](C(=O)NCC(=O)N[C@@H](CO)C(=O)N[C@@H](CC(N)=O)C(=O)N[C@H](C(=O)N[C@@H](Cc1ccc(O)cc1)C(N)=O)[C@@H](C)O)C(C)C)[C@@H](C)O
# notes: also called 43; compound 43
# B2: N^ε1-[2-[2-[2-[[(4S)-4-carboxy-4-(19-carboxynonadecanoylamino)butanoyl]amino]ethoxy]ethoxy]acetyl]-[Arg17,Pro21,Pro27]-h-amylin (peptide)
# peptide: K([AEEA-γGlu-C20 diacid])CNTATCATQRLANFLRHSSPNFGAIPSSTNVGSNTY-NH2
# modifications: disulfide 2-7; N-terminus assumed
# SMILES: CC[C@H](C)[C@H](NC(=O)[C@H](C)NC(=O)CNC(=O)[C@H](Cc1ccccc1)NC(=O)[C@H](CC(N)=O)NC(=O)[C@@H]1CCCN1C(=O)[C@H](CO)NC(=O)[C@H](CO)NC(=O)[C@H](Cc1c[nH]cn1)NC(=O)[C@H](CCCNC(=N)N)NC(=O)[C@H](CC(C)C)NC(=O)[C@H](Cc1ccccc1)NC(=O)[C@H](CC(N)=O)NC(=O)[C@H](C)NC(=O)[C@H](CC(C)C)NC(=O)[C@H](CCCNC(=N)N)NC(=O)[C@H](CCC(N)=O)NC(=O)[C@@H](NC(=O)[C@H](C)NC(=O)[C@@H]1CSSC[C@H](NC(=O)[C@@H](N)CCCCNC(=O)COCCOCCNC(=O)CC[C@H](NC(=O)CCCCCCCCCCCCCCCCCCC(=O)O)C(=O)O)C(=O)N[C@@H](CC(N)=O)C(=O)N[C@@H]([C@@H](C)O)C(=O)N[C@@H](C)C(=O)N[C@@H]([C@@H](C)O)C(=O)N1)[C@@H](C)O)C(=O)N1CCC[C@H]1C(=O)N[C@@H](CO)C(=O)N[C@@H](CO)C(=O)N[C@H](C(=O)N[C@@H](CC(N)=O)C(=O)N[C@H](C(=O)NCC(=O)N[C@@H](CO)C(=O)N[C@@H](CC(N)=O)C(=O)N[C@H](C(=O)N[C@@H](Cc1ccc(O)cc1)C(N)=O)[C@@H](C)O)C(C)C)[C@@H](C)O
# notes: also called 41; compound 41
# B3: N^ε1-[(4S)--4-carboxy-4-(19-carboxynonadecanoylamino)butanoyl]-[Glu14,Arg17,Pro21,Pro27,Pro37]-h-amylin (peptide)
# peptide: K([γGlu-C20 diacid])CNTATCATQRLAEFLRHSSPNFGAIPSSTNVGSNTP-NH2
# modifications: disulfide 2-7; N-terminus assumed
# SMILES: CC[C@H](C)[C@H](NC(=O)[C@H](C)NC(=O)CNC(=O)[C@H](Cc1ccccc1)NC(=O)[C@H](CC(N)=O)NC(=O)[C@@H]1CCCN1C(=O)[C@H](CO)NC(=O)[C@H](CO)NC(=O)[C@H](Cc1c[nH]cn1)NC(=O)[C@H](CCCNC(=N)N)NC(=O)[C@H](CC(C)C)NC(=O)[C@H](Cc1ccccc1)NC(=O)[C@H](CCC(=O)O)NC(=O)[C@H](C)NC(=O)[C@H](CC(C)C)NC(=O)[C@H](CCCNC(=N)N)NC(=O)[C@H](CCC(N)=O)NC(=O)[C@@H](NC(=O)[C@H](C)NC(=O)[C@@H]1CSSC[C@H](NC(=O)[C@@H](N)CCCCNC(=O)CC[C@H](NC(=O)CCCCCCCCCCCCCCCCCCC(=O)O)C(=O)O)C(=O)N[C@@H](CC(N)=O)C(=O)N[C@@H]([C@@H](C)O)C(=O)N[C@@H](C)C(=O)N[C@@H]([C@@H](C)O)C(=O)N1)[C@@H](C)O)C(=O)N1CCC[C@H]1C(=O)N[C@@H](CO)C(=O)N[C@@H](CO)C(=O)N[C@H](C(=O)N[C@@H](CC(N)=O)C(=O)N[C@H](C(=O)NCC(=O)N[C@@H](CO)C(=O)N[C@@H](CC(N)=O)C(=O)N[C@H](C(=O)N1CCC[C@H]1C(N)=O)[C@@H](C)O)C(C)C)[C@@H](C)O
# notes: also called 12; compound 12
# B4: N{Alpha-1}-[(4S)-4-carboxy-4-(19-carboxynonadecanoylamino)butanoyl]-[Glu14,Arg17,Pro21,Pro27,Lys34]-h-amylin (peptide)
# peptide: {C20 diacid-γGlu}-KCNTATCATQRLAEFLRHSSPNFGAIPSSTNVGKNTY-NH2
# modifications: disulfide 2-7
# SMILES: CC[C@H](C)[C@H](NC(=O)[C@H](C)NC(=O)CNC(=O)[C@H](Cc1ccccc1)NC(=O)[C@H](CC(N)=O)NC(=O)[C@@H]1CCCN1C(=O)[C@H](CO)NC(=O)[C@H](CO)NC(=O)[C@H](Cc1c[nH]cn1)NC(=O)[C@H](CCCNC(=N)N)NC(=O)[C@H](CC(C)C)NC(=O)[C@H](Cc1ccccc1)NC(=O)[C@H](CCC(=O)O)NC(=O)[C@H](C)NC(=O)[C@H](CC(C)C)NC(=O)[C@H](CCCNC(=N)N)NC(=O)[C@H](CCC(N)=O)NC(=O)[C@@H](NC(=O)[C@H](C)NC(=O)[C@@H]1CSSC[C@H](NC(=O)[C@H](CCCCN)NC(=O)CC[C@H](NC(=O)CCCCCCCCCCCCCCCCCCC(=O)O)C(=O)O)C(=O)N[C@@H](CC(N)=O)C(=O)N[C@@H]([C@@H](C)O)C(=O)N[C@@H](C)C(=O)N[C@@H]([C@@H](C)O)C(=O)N1)[C@@H](C)O)C(=O)N1CCC[C@H]1C(=O)N[C@@H](CO)C(=O)N[C@@H](CO)C(=O)N[C@H](C(=O)N[C@@H](CC(N)=O)C(=O)N[C@H](C(=O)NCC(=O)N[C@@H](CCCCN)C(=O)N[C@@H](CC(N)=O)C(=O)N[C@H](C(=O)N[C@@H](Cc1ccc(O)cc1)C(N)=O)[C@@H](C)O)C(C)C)[C@@H](C)O
# notes: also called 36; compound 36
# B5: N^ε1N^ε1-[(4S)-4-carboxy-4-(19-carboxynonadecanoylamino)butanoyl]-[His14,Arg17,Pro21,Pro27,Pro34]-h-amylin (peptide)
# peptide: K([γGlu-C20 diacid])CNTATCATQRLAHFLRHSSPNFGAIPSSTNVGPNTY-NH2
# modifications: disulfide 2-7; N-terminus assumed
# SMILES: CC[C@H](C)[C@H](NC(=O)[C@H](C)NC(=O)CNC(=O)[C@H](Cc1ccccc1)NC(=O)[C@H](CC(N)=O)NC(=O)[C@@H]1CCCN1C(=O)[C@H](CO)NC(=O)[C@H](CO)NC(=O)[C@H](Cc1c[nH]cn1)NC(=O)[C@H](CCCNC(=N)N)NC(=O)[C@H](CC(C)C)NC(=O)[C@H](Cc1ccccc1)NC(=O)[C@H](Cc1c[nH]cn1)NC(=O)[C@H](C)NC(=O)[C@H](CC(C)C)NC(=O)[C@H](CCCNC(=N)N)NC(=O)[C@H](CCC(N)=O)NC(=O)[C@@H](NC(=O)[C@H](C)NC(=O)[C@@H]1CSSC[C@H](NC(=O)[C@@H](N)CCCCNC(=O)CC[C@H](NC(=O)CCCCCCCCCCCCCCCCCCC(=O)O)C(=O)O)C(=O)N[C@@H](CC(N)=O)C(=O)N[C@@H]([C@@H](C)O)C(=O)N[C@@H](C)C(=O)N[C@@H]([C@@H](C)O)C(=O)N1)[C@@H](C)O)C(=O)N1CCC[C@H]1C(=O)N[C@@H](CO)C(=O)N[C@@H](CO)C(=O)N[C@H](C(=O)N[C@@H](CC(N)=O)C(=O)N[C@H](C(=O)NCC(=O)N1CCC[C@H]1C(=O)N[C@@H](CC(N)=O)C(=O)N[C@H](C(=O)N[C@@H](Cc1ccc(O)cc1)C(N)=O)[C@@H](C)O)C(C)C)[C@@H](C)O
# notes: also called 67; compound 67
# B6: N^ε21-[(4S)-4-carboxy-4-[[(4S)-4-carboxy-4-(19-carboxynonadecanoylamino)butanoyl]amino]butanoyl]-[Asp14,Arg17,Lys21,Pro27,Asp35]-h-amylin (peptide)
# peptide: KCNTATCATQRLADFLRHSSK([γGlu-γGlu-C20 diacid])NFGAIPSSTNVGSDTY-NH2
# modifications: disulfide 2-7; N-terminus assumed
# SMILES: CC[C@H](C)[C@H](NC(=O)[C@H](C)NC(=O)CNC(=O)[C@H](Cc1ccccc1)NC(=O)[C@H](CC(N)=O)NC(=O)[C@H](CCCCNC(=O)CC[C@H](NC(=O)CC[C@H](NC(=O)CCCCCCCCCCCCCCCCCCC(=O)O)C(=O)O)C(=O)O)NC(=O)[C@H](CO)NC(=O)[C@H](CO)NC(=O)[C@H](Cc1c[nH]cn1)NC(=O)[C@H](CCCNC(=N)N)NC(=O)[C@H](CC(C)C)NC(=O)[C@H](Cc1ccccc1)NC(=O)[C@H](CC(=O)O)NC(=O)[C@H](C)NC(=O)[C@H](CC(C)C)NC(=O)[C@H](CCCNC(=N)N)NC(=O)[C@H](CCC(N)=O)NC(=O)[C@@H](NC(=O)[C@H](C)NC(=O)[C@@H]1CSSC[C@H](NC(=O)[C@@H](N)CCCCN)C(=O)N[C@@H](CC(N)=O)C(=O)N[C@@H]([C@@H](C)O)C(=O)N[C@@H](C)C(=O)N[C@@H]([C@@H](C)O)C(=O)N1)[C@@H](C)O)C(=O)N1CCC[C@H]1C(=O)N[C@@H](CO)C(=O)N[C@@H](CO)C(=O)N[C@H](C(=O)N[C@@H](CC(N)=O)C(=O)N[C@H](C(=O)NCC(=O)N[C@@H](CO)C(=O)N[C@@H](CC(=O)O)C(=O)N[C@H](C(=O)N[C@@H](Cc1ccc(O)cc1)C(N)=O)[C@@H](C)O)C(C)C)[C@@H](C)O
# notes: also called 59; compound 59
# Biological target: T1, human amylin receptor (amylin 3(a) …)
# Experiment: SPA displacement of 125I-rat amylin, hAmylin 3(a) receptor membranes
# Outline: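 Cell membranes were prepared by homogenisation in Na-HEPES/EDTA buffer, pH 7.4, and stored at −80° C. They were then coupled to SPA beads at 35 ng/μL final and exposed to compounds in assay buffer containing CaCl2, MgCl₂, OA and Tween20. After 120 min at 25° C, plates were counted and IC₅₀ derived.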
row,Binder,IC50 [nM]
1,B1,0.076
2,B2,0.427
3,B3,0.142
4,B4,0.403
5,B5,0.09
6,B6,1.19
